Test results reported in patent US20250376529A1 (Amgen, published 2025).

T1: Rhesus GIPR (rhesus, UniProt F7E1R9 22-466)
T1 sequence: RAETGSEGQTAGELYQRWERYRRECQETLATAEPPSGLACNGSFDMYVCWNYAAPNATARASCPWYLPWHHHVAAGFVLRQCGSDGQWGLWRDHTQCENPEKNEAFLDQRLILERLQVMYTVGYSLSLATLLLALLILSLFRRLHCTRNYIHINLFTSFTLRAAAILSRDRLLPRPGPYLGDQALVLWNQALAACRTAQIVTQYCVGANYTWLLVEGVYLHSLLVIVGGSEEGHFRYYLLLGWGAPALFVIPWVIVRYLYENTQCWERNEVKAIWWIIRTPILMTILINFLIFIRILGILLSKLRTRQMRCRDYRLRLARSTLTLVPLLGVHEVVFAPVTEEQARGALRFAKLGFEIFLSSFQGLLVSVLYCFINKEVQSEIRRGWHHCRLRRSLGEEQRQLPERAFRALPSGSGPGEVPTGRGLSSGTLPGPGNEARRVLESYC

B1: 18E3.002 (antibody, human IgG1, kappa, N297G)
heavy: not shown
light: EIVLTQSPGTLSLSPGERATLSCRASQSISYSYLAWYQQKPGQAPRLLIYGASSRATGIPDRFSGSGSGTDFTLTISRLEPDDFAVYYCQQYGSSPLTFGGGTKVEIKRTVAAPSVFIFPPSDEQLKSGTASVVCLLNNFYPREAKVQWKVDNALQSGNSQESVTEQDSKDSTYSLSSTLTLSKADYEKHKVYACEVTHQGLSSPVTKSFNRGEC
B2: 18E3.005 (antibody, human IgG1, kappa, N297G)
heavy: not shown
light: EIVLTQSPGTLSLSPGERATLSCRASQSISYSYLAWYQQKPGQAPRLLIYGASSRATGIPDRFSGSGSGTDFTLTISRLEPDDFAVYYCQQYGSSPLTFGGGTKVEIKRTVAAPSVFIFPPSDEQLKSGTASVVCLLNNFYPREAKVQWKVDNALQSGNSQESVTEQDSKDSTYSLSSTLTLSKADYEKHKVYACEVTHQGLSSPVTKSFNRGEC
B3: 18E3.007 (antibody, human IgG1, kappa, N297G)
heavy: not shown
light: EIVLTQSPGTLSLSPGERATLSCRASQSISYSYLAWYQQKPGQAPRLLIYGASSRATGIPDRFSGSGSGTDFTLTISRQEPDDFAVYYCQQYGSSPLTFGGGTKVEIKRTVAAPSVFIFPPSDEQLKSGTASVVCLLNNFYPREAKVQWKVDNALQSGNSQESVTEQDSKDSTYSLSSTLTLSKADYEKHKVYACEVTHQGLSSPVTKSFNRGEC
B4: 18E3.004 (antibody, human IgG1, kappa, N297G)
heavy: not shown
light: EIVLTQSPGTLSLSPGERATLSCRASQSISYSYLAWYQQKPGQAPRLLIYGASSRATGIPDRFSGSGSGTDFTLTISRLEPDDFAVYYCQQYGSSPLTFGGGTKVEIKRTVAAPSVFIFPPSDEQLKSGTASVVCLLNNFYPREAKVQWKVDNALQSGNSQESVTEQDSKDSTYSLSSTLTLSKADYEKHKVYACEVTHQGLSSPVTKSFNRGEC
B5: 18E3.003 (antibody, human IgG1, kappa, N297G)
heavy: not shown
light: EIVLTQSPGTLSLSPGERATLSCRASQSISYSYLAWYQQKPGQAPRLLIYGASSRATGIPDRFSGSGSGTDFTLTISRQEPDDFAVYYCQQYGSSPLTFGGGTKVEIKRTVAAPSVFIFPPSDEQLKSGTASVVCLLNNFYPREAKVQWKVDNALQSGNSQESVTEQDSKDSTYSLSSTLTLSKADYEKHKVYACEVTHQGLSSPVTKSFNRGEC
B6: 18E3.006 (antibody, human IgG1, kappa, N297G)
heavy: not shown
light: EIVLTQSPGTLSLSPGERATLSCRASQSISYSYLAWYQQKPGQAPRLLIYGASSRATGIPDRFSGSGSGTDFTLTISRLEPDDFAVYYCQQYGSSPLTFGGGTKVEIKRTVAAPSVFIFPPSDEQLKSGTASVVCLLNNFYPREAKVQWKVDNALQSGNSQESVTEQDSKDSTYSLSSTLTLSKADYEKHKVYACEVTHQGLSSPVTKSFNRGEC
B7: 18E3.008 (antibody, human IgG1, kappa, N297G)
heavy: not shown
light: EIVLTQSPGTLSLSPGERATLSCRASQSISYSYLAWYQQKPGQAPRLLIYGASSRATGIPDRFSGSGSGTDFTLTISRQEPDDFAVYYCQQYGSSPLTFGGGTKVEIKRTVAAPSVFIFPPSDEQLKSGTASVVCLLNNFYPREAKVQWKVDNALQSGNSQESVTEQDSKDSTYSLSSTLTLSKADYEKHKVYACEVTHQGLSSPVTKSFNRGEC
B8: 5C2.007 (antibody, human IgG1, kappa, N297G, V domains shown)
VH: QVPLVQSGAEVKKPGASVKVSCKASGYTFTGYYIHWVRQAPGQGLEWMGWINPESGGTDYSQRFQGRFTMTRDTSISTAYMELNRLRSDDTAVYYCAREATIFGMVIVPFDYWGQGTLVTVSS
VL: not shown
B9: 13H12 (antibody, human IgG1, kappa, N297G, V domains shown)
VH: QVPLVQSGAEVKKPGASVKVSCKASGYTFTGYYIHWVRQAPGQGLEWMGWINPDSGGTDYSQRFQGRFTMTRDTSISTAYMELSRLRSDDTAVYYCAREATIFGMVIVPFDYWGQGTLVTVSS
VL: not shown
B10: 13H12.003 (antibody, human IgG1, kappa, N297G, V domains shown)
VH: QVPLVQSGAEVKKPGASVKVSCKASGYTFTGYYIHWVRQAPGQGLEWMGWINPESGGTDYSQRFQGRFTMTRDTSISTAYMELSRLRSDDTAVYYCAREATIFGMVIVPFDYWGQGTLVTVSS
VL: not shown
B11: 13H12.004 (antibody, human IgG1, kappa, N297G, V domains shown)
VH: QVPLVQSGAEVKKPGASVKVSCKASGYTFTGYYIHWVRQAPGQGLEWMGWINPDSGGTDYSQRFQGRVTMTRDTSISTAYMELSRLRSDDTAVYYCAREATIFGMVIVPFDYWGQGTLVTVSS
VL: not shown
B12: 13H12.002 (antibody, human IgG1, kappa, N297G, V domains shown)
VH: QVPLVQSGAEVKKPGASVKVSCKASGYTFTGYYIHWVRQAPGQGLEWMGWINPESGGTDYSQRFQGRVTMTRDTSISTAYMELSRLRSDDTAVYYCAREATIFGMVIVPFDYWGQGTLVTVSS
VL: not shown
B13: 13H12.006 (antibody, human IgG1, kappa, N297G, V domains shown)
VH: QVPLVQSGAEVKKPGASVKVSCKASGYTFTGYYIHWVRQAPGQGLEWMGWINPESGGTDYSQRFQGRVTMTRDTSISTAYMELSRLRSDDTAVYYCAREATIFGMVIVPFDYWGQGTLVTVSS
VL: not shown
B14: 4H9.004 (antibody, human IgG1, kappa, N297G, V domains shown)
VH: QVQLVESGGGVVQPGRSLRLSCAASGFTFSYFGMHWVRQAPGKGLEWVAVIWYDGSNKYYADSVKGRFTISRDNSKNTLYLQMNSLRAEDTAVYYCARDGTIFGVLLGDYWGQGTLVTVSS
VL: DIQMTQSPSSLSASVGDRVTITCRASQGIRNELGWYQQKPGKAPKRLIYGASSLQSGVPSRFSGSGSGTEFTLTISSLQPEDFVTYYCLQHNSYPFTFGPGTKVDVKR
B15: 12H11.002 (antibody, human IgG1, kappa, N297G, V domains shown)
VH: QVPLVQSGAEVKKPGASVKVSCKASGYTFTGYYIHWVRQAPGQGLEWMGWISPNQGETNYAQKFQDRVTMTRDTSISTAYMELSRLRSDDTAVYYCAREATIFGMLIVPFDYWGQGTLVTVSS
VL: DIVMTQSPDSLSVSLGERATINCKSSQSVLSSSNNKNYLAWYQQKPGQPPNLLIYWTSTRDSGVPDRFSGSGSGTDFTLTINSLQAEDVAVYYCQQYYRTPWTFGQGTKVEIKR
B16: 11C1.007 (antibody, human IgG1, kappa, N297G, V domains shown)
VH: QVPLVQSGAEVKKPGASVKVSCKASGYTFTGYYIHWVRQAPGQGLVWMGWISPNSGETSYAQKFQDRVTMTRDTSISTAYMELSRLRSDDTAVYFCTREATIFGMLIVPFDYWGQGTLVTVSS
VL: DIVMTQSPDSLSVSLGERATINCKSSQSVLSSSNNKNYLAWYQQKPGQPPNLLIYWTSTRDSGVPDRFSGSGSGTDFTLTINSLQAEDVAVYYCQQYYRTPWTFGQGTKVEIKR
B17: 11C1.004 (antibody, human IgG1, kappa, N297G, V domains shown)
VH: QVPLVQSGAEVKKPGASVKVSCKASGYTFTGYYIHWVRQAPGQGLVWMGWISPNSGETSYAQKFQDRVTMTRDTSISTAYMELSRLRSDDTAVYFCAREATIFGMLIVPFDYWGQGTLVTVSS
VL: DIVMTQSPDSLSVSLGERATINCKSSQSVLSSSNNKNYLAWYQQKPGQPPNLLIYWTSTRDSGVPDRFSGSGSGTDFTLTINSLQAEDVAVYYCQQYYRTPWTFGQGTKVEIKR
B18: 11C1.003 (antibody, human IgG1, kappa, N297G, V domains shown)
VH: QVPLVQSGAEVKKPGASVKVSCKASGYTFTGYYIHWVRQAPGQGLVWMGWISPNSGDTSYAQKFQDRVTMTRDTSISTAYMELSRLRSDDTAVYFCAREATIFGMLIVPFDYWGQGTLVTVSS
VL: not shown
B19: 11C1.006 (antibody, human IgG1, kappa, N297G, V domains shown)
VH: QVPLVQSGAEVKKPGASVKVSCKASGYTFTGYYIHWVRQAPGQGLVWMGWISPNSGDTSYAQKFQDRVTMTRDTSISTAYMELSRLRSDDTAVYFCTREATIFGMLIVPFDYWGQGTLVTVSS
VL: not shown
B20: 11C1.002 (antibody, human IgG1, kappa, N297G, V domains shown)
VH: QVPLVQSGAEVKKPGASVKVSCKASGYTFTGYYIHWVRQAPGQGLVWMGWISPNSGETSYAQKFQDRVTMTRDTSISTAYMELSRLRSDDTAVYFCAREATIFGMLIVPFDYWGQGTLVTVSS
VL: not shown
B21: 11C1 (antibody, human IgG1, kappa, N297G, V domains shown)
VH: QVPLVQSGAEVKKPGASVKVSCKASGYTFTGYYIHWVRQAPGQGLVWMGWISPNSGDTSYAQKFQDRVTMTRDTSISTAYMELSRLRSDDTAVYFCTREATIFGMLIVPFDYWGQGTLVTVSS
VL: DIVMTQSPDSLSVSLGERATINCKSSQSVLSSSNNKNYLAWYQQKPGQPPNLLIYWTSTRDSGVPDRFSGSGSGTDFTLTINSLQAEDVAVYYCQQYYRTPWTFGQGTKVEIKR
B22: 11C1.005 (antibody, human IgG1, kappa, N297G, V domains shown)
VH: QVPLVQSGAEVKKPGASVKVSCKASGYTFTGYYIHWVRQAPGQGLVWMGWISPNSGETSYAQKFQDRVTMTRDTSISTAYMELSRLRSDDTAVYFCTREATIFGMLIVPFDYWGQGTLVTVSS
VL: not shown

The binders below were run against T1, Rhesus GIPR (assay: cell-based or functional assay).

Q: How did the “Rhesus GIPR CAMP Assay (Conc. mAb @ 60% Inhibition in nM)” value turn out when B1 was run?
A: 0.16 nM

Q: With B2 as the binder, how does the “Rhesus GIPR CAMP Assay (Conc. mAb @ 60% Inhibition in nM)” value read?
A: 0.1 nM

Q: B3 was tested. Which “Rhesus GIPR CAMP Assay (Conc. mAb @ 60% Inhibition in nM)” value did it give?
A: 0.24 nM

Q: With B4 as the binder, how does the “Rhesus GIPR CAMP Assay (Conc. mAb @ 60% Inhibition in nM)” value read?
A: 0.06 nM

Q: With B5 as the binder, how does the “Rhesus GIPR CAMP Assay (Conc. mAb @ 60% Inhibition in nM)” value read?
A: 0.12 nM

Q: Which “Rhesus GIPR CAMP Assay (Conc. mAb @ 60% Inhibition in nM)” value does the source give for B6 here?
A: 0.12 nM

Q: With B7 as the binder, how does the “Rhesus GIPR CAMP Assay (Conc. mAb @ 60% Inhibition in nM)” value read?
A: 0.37 nM

Q: Which “Rhesus GIPR CAMP Assay (Conc. mAb @ 60% Inhibition in nM)” value does the source give for B8 here?
A: 0.66 nM

Q: B9 was tested. Which “Rhesus GIPR CAMP Assay (Conc. mAb @ 60% Inhibition in nM)” value did it give?
A: 0.67 nM

Q: With B10 as the binder, how does the “Rhesus GIPR CAMP Assay (Conc. mAb @ 60% Inhibition in nM)” value read?
A: 0.83 nM

Q: How did the “Rhesus GIPR CAMP Assay (Conc. mAb @ 60% Inhibition in nM)” value turn out when B11 was run?
A: 0.56 nM

Q: B12 was tested. Which “Rhesus GIPR CAMP Assay (Conc. mAb @ 60% Inhibition in nM)” value did it give?
A: 0.95 nM

Q: Which “Rhesus GIPR CAMP Assay (Conc. mAb @ 60% Inhibition in nM)” value does the source give for B13 here?
A: 0.92 nM

Q: With B14 as the binder, how does the “Rhesus GIPR CAMP Assay (Conc. mAb @ 60% Inhibition in nM)” value read?
A: 0.43 nM

Q: B15 was tested. Which “Rhesus GIPR CAMP Assay (Conc. mAb @ 60% Inhibition in nM)” value did it give?
A: 0.45 nM

Q: B16 was tested. Which “Rhesus GIPR CAMP Assay (Conc. mAb @ 60% Inhibition in nM)” value did it give?
A: 0.4 nM

Q: With B17 as the binder, how does the “Rhesus GIPR CAMP Assay (Conc. mAb @ 60% Inhibition in nM)” value read?
A: 0.33 nM

Q: For B18, which “Rhesus GIPR CAMP Assay (Conc. mAb @ 60% Inhibition in nM)” value is on record?
A: 0.48 nM

Q: Which “Rhesus GIPR CAMP Assay (Conc. mAb @ 60% Inhibition in nM)” value does the source give for B19 here?
A: 0.51 nM

Q: B20 was tested. Which “Rhesus GIPR CAMP Assay (Conc. mAb @ 60% Inhibition in nM)” value did it give?
A: 0.39 nM

Q: For B21, which “Rhesus GIPR CAMP Assay (Conc. mAb @ 60% Inhibition in nM)” value is on record?
A: 0.65 nM

Q: With B22 as the binder, how does the “Rhesus GIPR CAMP Assay (Conc. mAb @ 60% Inhibition in nM)” value read?
A: 0.42 nM
